Numbering of substitutions follows the chain as printed. Names may count otherwise.
T1: rat MOG (rMOG) expressed on HEK293F cells (rat, UniProt Q63345 28-245)
T1 construct: also called rMOG/HEK293F
T1 sequence: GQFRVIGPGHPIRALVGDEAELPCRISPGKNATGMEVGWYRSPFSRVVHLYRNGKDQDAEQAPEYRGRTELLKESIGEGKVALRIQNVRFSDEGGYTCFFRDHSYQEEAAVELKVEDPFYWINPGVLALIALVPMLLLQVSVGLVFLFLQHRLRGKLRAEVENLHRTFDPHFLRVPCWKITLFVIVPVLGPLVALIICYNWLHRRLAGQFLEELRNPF

T2: cynomolgus monkey MOG (cMOG) expressed on HEK293 cells (cynomolgus monkey, UniProt Q9BGS7 30-247)
T2 construct: also called cMOG/HEK293
T2 sequence: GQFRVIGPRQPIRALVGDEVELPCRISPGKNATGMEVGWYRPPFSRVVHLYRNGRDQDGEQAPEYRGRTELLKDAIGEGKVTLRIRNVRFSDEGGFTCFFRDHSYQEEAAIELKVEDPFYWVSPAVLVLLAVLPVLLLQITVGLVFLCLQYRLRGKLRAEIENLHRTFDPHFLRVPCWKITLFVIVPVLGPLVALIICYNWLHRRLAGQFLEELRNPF

T3: human MOG (hMOG) expressed on HEK293, Expi293F or L929 cells (human, UniProt Q16653 30-247)
T3 construct: also called hMOG/HEK293; hMOG/HEK293F
T3 chain: T2 sequence with Q10H, R55K, E60D, I111M, A125G

B1: MOG09 antibody (anti-MOG human IgG antibody expressed from N5LG4PE_MOG09) (antibody, V domains shown)
VH: QVQLQESGPGLVKSSETLSLTCAVSGHSISSAYYWGWIRQPPGKGLEWLGSIYHSGNTYYNPSLKSRVTISVDTSKNQFSLRLTSVTAADTAVYYCARGRGYSGYDSGMDVWGQGTTVTVSS
VL: SYVLTQPPSASGTPGQRVTISCSGTSSNIGINSVNWYQQLPGMAPKLVIYSRDQRPSGVPDRFSGSQSGTSASLAINGLQSEDEADYWCSTWDDSLNGWVFGGGTKLTVL
B2: MOG01 scFv-hG4PE (Fc fusion)
chain: QVQLQQSGAGLLKPSETLSLTCAVSGGSFSGYYWTWIRQRPGKGLEWIGEINHRGSTDYNPSLKSRVTMSIDTSKSQFSLNLKSVTAADTAVYYCARAAWGSCYDGTCYPAEYFQYWGQGTLVTVSSGGGGSGGRASGGGGSQSALTQPASVSGSPGQSITISCTGTSRDVGGYNYVSWYQQHPGKAPKLMIYDVNNRPSGVSNRFSGSKSGNTASLTISGLQAEDEADYFCSSYTSSSTPVVFGGGTKLTVL
B3: MOG01 antibody (anti-MOG human IgG antibody expressed from N5LG4PE_MOG01) (antibody, V domains shown)
VH: QVQLQQSGAGLLKPSETLSLTCAVSGGSFSGYYWTWIRQRPGKGLEWIGEINHRGSTDYNPSLKSRVTMSIDTSKSQFSLNLKSVTAADTAVYYCARAAWGSCYDGTCYPAEYFQYWGQGTLVTVSS
VL: QSALTQPASVSGSPGQSITISCTGTSRDVGGYNYVSWYQQHPGKAPKLMIYDVNNRPSGVSNRFSGSKSGNTASLTISGLQAEDEADYFCSSYTSSSTPVVFGGGTKLTVL
notes: also called anti-MOG01 human IgG antibody; MOG01 IgG4PE
B4: iMOG-3Rim1-S32 antibody (VHH-Fc expressed from N5G4PEFc_iMOG-3Rim1-S32) (Fc fusion)
chain: QVQLVESGGGLVQTGGSLRLSCAASGSMFSTMGWFRQAPGNQRELVAIMSSGGTANYADSVKGRFTISGDNVKNTVTLQMNSLNPEDTAVYYCRFTGWVKSSFSTYWGQGTQVTVSS
notes: not shown: Fc region of human IgG4PE
B5: MOG14 antibody (anti-MOG human IgG antibody expressed from N5KG4PE_MOG14) (antibody, V domains shown)
VH: QVQLVQSGAEVKKPGASVKVSCQASGYTFTGDYIHWVRQAPGQGLEYLGWINPDRGFTYYTQKFQGRVTMTRDTSSNTAYMELSSLRSDDTAMYYCTRENPRAYFFDLWGQGTLVTVSS
VL: EIVLTQSPGTLSLSPGERATLSCRASQSISGSYVTWYQQKPGQAPRLLIYATSNRAIGIPDKFSGGGSGRDFTLTINRLEPEDFAVYYCQQSVSSPYTFGQGTKVEIK
B6: AVM IgG4PE(R409K)_MOG01dscFv antibody (bispecific antibody)
heavy: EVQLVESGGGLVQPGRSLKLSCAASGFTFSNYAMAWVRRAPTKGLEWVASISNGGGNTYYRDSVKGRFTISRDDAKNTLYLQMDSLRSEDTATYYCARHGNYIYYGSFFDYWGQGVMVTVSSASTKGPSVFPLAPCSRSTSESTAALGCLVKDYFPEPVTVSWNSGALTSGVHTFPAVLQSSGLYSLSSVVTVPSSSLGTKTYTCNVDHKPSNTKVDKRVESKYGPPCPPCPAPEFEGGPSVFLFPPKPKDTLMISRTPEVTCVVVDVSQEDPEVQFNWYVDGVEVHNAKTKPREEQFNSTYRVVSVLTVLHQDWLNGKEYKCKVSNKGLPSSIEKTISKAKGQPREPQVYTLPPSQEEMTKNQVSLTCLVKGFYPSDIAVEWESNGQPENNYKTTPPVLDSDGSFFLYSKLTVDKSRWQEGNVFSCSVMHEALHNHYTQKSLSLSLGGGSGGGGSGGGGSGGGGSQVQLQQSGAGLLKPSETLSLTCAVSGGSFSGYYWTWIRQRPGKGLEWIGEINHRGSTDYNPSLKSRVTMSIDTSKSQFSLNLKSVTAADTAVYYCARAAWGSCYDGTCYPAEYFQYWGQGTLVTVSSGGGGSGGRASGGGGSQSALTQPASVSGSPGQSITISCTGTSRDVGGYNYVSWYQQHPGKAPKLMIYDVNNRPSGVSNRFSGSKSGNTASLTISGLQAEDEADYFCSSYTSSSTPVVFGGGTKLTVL
light: QFVLSQPNSVSTNLGSTVKLSCKRSTGNIGSNYVSWYQQHEGRSPTTMIYRDDKRPDGVPDRFSGSIDRSSDSALLTINNVQTEDEADYFCQSYSSGINIFGGGTKLTVLGQPKAAPSVTLFPPSSEELQANKATLVCLISDFYPGAVTVAWKADSSPVKAGVETTTPSKQSNNKYAASSYLSLTPEQWKSHRSYSCQVTHEGSTVEKTVAPTECS
notes: MOG01 scFv fused to the C-terminus of anti-AVM IgG; also called pCI-AVM-hLG4PE(R409K)_MOG01scFv

Experiments:
[1] = molecular target: T4, extracellular domain protein of rat MOG to which GST is added at the C-terminus (rMOG-GST) (rat); test: SPR Biacore T-100, antibody captured, rMOG-GST analyte; KD not unique (kd outside range)
T4 construct: whole construct entry
Procedure: (§1) The antibodies were immobilized on CM5 sensor chips using a Human antibody Capture kit, and the binding abilities were evaluated using rMOG-GST produced in Example 4 as an analyte. The obtained sensorgrams were analyzed with BIA evaluation software, and the dissociation constants (KD values) were thus calculated.

[2] = molecular target: T4, extracellular domain protein of rat MOG …; test: SPR Biacore T-100, antibody captured, rMOG-GST analyte
Procedure: as §1

[3] = molecular target: T1, rat MOG (rMOG) expressed on HEK293F …; test: flow cytometry on HEK293 cells transiently expressing rat MOG; antibody at 10 µg/mL, RPE-labelled goat anti-human antibody; negative control anti-AVM antibody
Procedure: (§2) rMOG/HEK293F, mMOG/IEK293F, cMOG/HEK293 and hMOG/HEK293 cells were suspended in a Staining Buffer (SB) of PBS containing 0.1% NaN₃ and 1% FBS each at a concentration of 5×10⁵ cells/mL and dispensed to a round-bottom 96-well plate (manufactured by Becton Dickinson).
(§3) After centrifugation (2000 rpm, 4° C., two minutes), the supernatants were removed, and the antibodies obtained in Example 6 at 10 μg/mL were added to the pellets. After suspending the pellets, the plate was left to stand at ice temperature for 30 minutes. The supernatants were removed after further centrifugation (2000 rpm, 4° C., two minutes), and the pellets were washed with SB. Then, 1 μg/mL RPE fluorescently labeled goat anti-human antibody (manufactured by […]) was added, and the plate was incubated at ice temperature for 30 minutes.
(§4) After washing with SB, the cells were suspended in SB, and the fluorescence intensities of the cells were measured using a flow cytometer FACS CANTO II (manufactured by Becton Dickinson). As the negative control, an anti-AVM antibody was used.

[4] = molecular target: T2, cynomolgus monkey MOG (cMOG) expressed …; test: flow cytometry on HEK293 cells transiently expressing cynomolgus monkey MOG; antibody at 10 µg/mL, RPE-labelled goat anti-human antibody; negative control anti-AVM antibody
Procedure: as §2, §3, §4

[5] = molecular target: T4, extracellular domain protein of rat MOG …; test: SPR Biacore T-100, antibody captured, rMOG-GST analyte; kd outside the measurement range
Procedure: as §1

[6] = molecular target: T3, human MOG (hMOG) expressed on HEK293, …; test: flow cytometry on HEK293 cells transiently expressing human MOG; antibody at 10 µg/mL, RPE-labelled goat anti-human antibody; negative control anti-AVM antibody
Procedure: as §2, §3, §4

[7] = molecular target: T5, extracellular domain protein of human MOG to which GST is added at the C-terminus (hMOG-GST) (human); test: SPR, antibody captured, hMOG-GST analyte; KD not unique (ka outside range)
[8] = molecular target: T6, extracellular domain protein of mouse MOG to which GST is added at the C-terminus (mMOG-GST) (mouse); test: SPR, antibody captured, mMOG-GST analyte; paragraph 625: ka of MOG01 scFv-hG4PE outside the measurement range
[9] = molecular target: T5, extracellular domain protein of human …; test: SPR, antibody captured, hMOG-GST analyte
Procedure: as §1
The results of evaluation of the affinities to human MOG are shown in Table 14, and the results of evaluation of the affinities to mouse MOG are shown in Table 15.

[10] = molecular target: T6, extracellular domain protein of mouse …; test: SPR, antibody captured, mMOG-GST analyte
[11] = molecular target: T5, extracellular domain protein of human …; test: SPR, antibody captured, hMOG-GST analyte; ka outside the measurement range
[12] = molecular target: T6, extracellular domain protein of mouse …; test: SPR, antibody captured, mMOG-GST analyte; paragraph 625: KD could not be determined as a unique value
[13] = molecular target: T2, cynomolgus monkey MOG (cMOG) expressed …; test: flow cytometry on HEK293 cells transiently expressing cynomolgus monkey MOG; RPE-labelled goat anti-human antibody; negative control anti-AVM antibody
[14] = molecular target: T4, extracellular domain protein of rat MOG …; test: SPR as in Example 8 (antibody captured, rMOG-GST analyte)
Procedure: as §1
Binding of the bispecific antibodies obtained in Example 6 and Example 16 to MOG was evaluated by the same method as that of Example 8.

[15] = molecular target: T4, extracellular domain protein of rat MOG …; test: as above; remark: listed apart in the source
Procedure: as §1

T6 sequence (chain, as listed by the source limits assumed): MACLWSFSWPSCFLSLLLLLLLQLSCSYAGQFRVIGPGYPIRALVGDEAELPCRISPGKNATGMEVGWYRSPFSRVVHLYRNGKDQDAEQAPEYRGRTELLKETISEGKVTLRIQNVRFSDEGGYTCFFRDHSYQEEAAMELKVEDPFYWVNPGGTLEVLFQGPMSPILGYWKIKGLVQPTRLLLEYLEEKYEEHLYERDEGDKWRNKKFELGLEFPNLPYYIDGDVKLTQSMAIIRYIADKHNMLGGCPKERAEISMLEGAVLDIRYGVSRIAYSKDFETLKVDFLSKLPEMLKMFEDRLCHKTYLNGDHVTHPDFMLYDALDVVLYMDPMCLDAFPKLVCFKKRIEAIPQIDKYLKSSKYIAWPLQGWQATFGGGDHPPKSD

| Binder | kon [2] [M⁻¹ s⁻¹] | binding result [3] | binding result [4] | binding result [6] | Kd [2] [nM] | koff [2] [s⁻¹] | other results |
| --- | --- | --- | --- | --- | --- | --- | --- |
| B1 | 9000 | binds | binds | binds | – | – | Kd [1]: 0.021 nM; koff [5]: 1.9e-07 s⁻¹ |
| B2 | – | – | – | – | – | – | Kd [7]: 3.6 nM; kon [8]: 5.9e+06 M⁻¹ s⁻¹; koff [9]: 0.015 s⁻¹; koff [10]: 0.04 s⁻¹; kon [11]: 4.1e+06 M⁻¹ s⁻¹; Kd [12]: 6.9 nM |
| B3 | 140000 | binds | binds | binds | 6.6 | 0.00095 | – |
| B4 | – | – | – | – | – | – | binding result [13]: no binding (tested: 10 µg/mL) |
| B5 | 4700 | binds | binds | binds | 40 | 0.00019 | – |
| B6 | – | – | – | – | – | – | Kd [14]: 200 nM; koff [14]: 0.0049 s⁻¹; kon [14]: 24000 M⁻¹ s⁻¹; Kd [15]: 200 nM; koff [15]: 0.0046 s⁻¹; kon [15]: 23000 M⁻¹ s⁻¹ |
